{"source": "paper PMC11535546", "molecular_target": "VASP (UniProt P50552)", "test": "co-immunoprecipitation, immunoblot", "settings": "reference: wild-type Zyxin; sites S142,S143", "data": [{"substance": "Zyxin (from UniProt Q15942) Zyxin S142A/S143A", "values": [{"measurement": "binding against the reference", "value": "lost"}]}]}
